Here are results for 7 molecules from patent publication US20250340662A1 (AKIRAM THERAPEUTICS, published 2025).

The target of one test is T1, Human CD44 iso6-Fc (human, UniProt P16070-6 21-606, limits assumed, chemically biotinylated in the form called Bio-CD44).
T1 construct: Negative control antigen, ProMab, HKB11 cells; also called Bio-CD44; bio-CD44
Kind of test: SPR SCK, antibody immobilised, CD44-Fc injected. Here is the method: (§1) The SPR measurements were performed on a BIAcore T200 instrument (Cytiva) using a SCK approach. Each antibody was directly immobilized onto a separate surface of a CM5 series S sensor chip using EDC/NHS amine coupling chemistry according to manufacturer's recommendations. Immobilization levels were set to 1500 RU. All experiments were performed at 25° C. in running buffer (HBS, 0.05% Tween20, pH 7.5). A three-fold dilution series of CD44v6 and negative control CD44, comprised of five concentrations ranging between 10-0.12 nM, were prepared in running buffer. A four-fold dilution series of human, cynomolgus and rabbit v6-peptide, respectively, comprised of five concentrations ranging between 100-0.39 nM, were also prepared in running buffer. Each dilution series were sequentially injected, starting with the lowest concentration first, over an immobilized antibody clone and chip surfaces were regenerated with 10 mM glycin-HCl, pH 2.1. See table 10 for specifications of antigens used in SPR measurements. By subtracting the response curve of a reference surface (an activated and deactivated chip surface) and to a blank run (running buffer injected instead of antigen) response curve sensorgrams were obtained. Data was analyzed using the Biacore T200 Evaluation 3.1 software and a 1:1 Langmuir binding model.

In a further test the target is T2, Human v6-peptide (human, N-terminal biotin).
T2 construct: Bachem #4108947, 43 amino acids, synthetic; also called Hm v6-peptide; hm v6-peptide
T2 peptide: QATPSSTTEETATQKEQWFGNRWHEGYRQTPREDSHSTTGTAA
The test can be described thus: SPR SCK, antibody immobilised, peptide injected. On the procedure: as §1

In a further test the target is T3, Cynomolgus v6-peptide (cynomolgus, UniProt A0A2K5VJE0 387-429, N-terminal biotin).
T3 construct: domain: v6-region (43 amino acids); also called Cm v6-peptide; cm v6-peptide
T3 peptide: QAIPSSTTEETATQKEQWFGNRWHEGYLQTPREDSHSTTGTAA
Kind of test: SPR SCK, antibody immobilised, peptide injected. Here is the method: as §1

Another test concerns the target T4, Rabbit v6-peptide (rabbit).
T4 construct: domain: v6-region (43 amino acids); also called Rb v6-peptide; rb v6-peptide
The test can be described thus: SPR SCK, antibody immobilised, peptide injected. On the procedure: as §1

The target of test [1] is T5, Human CD44v6 iso4-Fc (human, UniProt P16070-4 21-606, limits assumed, chemically biotinylated in the form called Bio-CD44v6).
T5 construct: Custom ordered from ProMab, produced in HKB11 cells; The biotinylated and the plain form are kept as one molecule; also called Bio-CD44v6; bio-CD44v6
T5 sequence (P16070 other isoform, or with tags, fused parts or gaps limits assumed): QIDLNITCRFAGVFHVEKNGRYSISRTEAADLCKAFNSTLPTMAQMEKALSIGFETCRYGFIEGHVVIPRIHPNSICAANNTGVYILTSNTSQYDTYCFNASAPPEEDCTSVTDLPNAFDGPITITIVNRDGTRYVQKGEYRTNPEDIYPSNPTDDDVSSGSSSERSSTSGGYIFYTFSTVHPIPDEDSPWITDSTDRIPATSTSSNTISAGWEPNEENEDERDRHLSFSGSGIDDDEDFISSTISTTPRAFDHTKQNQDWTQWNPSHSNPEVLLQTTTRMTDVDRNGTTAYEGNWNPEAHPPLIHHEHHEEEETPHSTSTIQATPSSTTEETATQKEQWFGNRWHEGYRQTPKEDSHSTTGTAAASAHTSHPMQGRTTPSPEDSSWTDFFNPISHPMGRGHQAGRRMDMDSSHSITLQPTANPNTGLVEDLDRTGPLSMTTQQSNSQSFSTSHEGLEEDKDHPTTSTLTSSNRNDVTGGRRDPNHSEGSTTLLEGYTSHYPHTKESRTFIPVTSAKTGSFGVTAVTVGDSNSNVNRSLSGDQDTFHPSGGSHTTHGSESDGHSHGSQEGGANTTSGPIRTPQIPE
Kind of test: SPR SCK, antibody immobilised, CD44v6-Fc injected. Here is the method: as §1

Test [2] concerns the target T5, Human CD44v6 iso4-Fc. The test can be described thus: SPR SCK, antibody immobilised, CD44v6-Fc injected; apparent KD. On the procedure:
as §1

T1 sequence (P16070 other isoform, or with tags, fused parts or gaps limits assumed): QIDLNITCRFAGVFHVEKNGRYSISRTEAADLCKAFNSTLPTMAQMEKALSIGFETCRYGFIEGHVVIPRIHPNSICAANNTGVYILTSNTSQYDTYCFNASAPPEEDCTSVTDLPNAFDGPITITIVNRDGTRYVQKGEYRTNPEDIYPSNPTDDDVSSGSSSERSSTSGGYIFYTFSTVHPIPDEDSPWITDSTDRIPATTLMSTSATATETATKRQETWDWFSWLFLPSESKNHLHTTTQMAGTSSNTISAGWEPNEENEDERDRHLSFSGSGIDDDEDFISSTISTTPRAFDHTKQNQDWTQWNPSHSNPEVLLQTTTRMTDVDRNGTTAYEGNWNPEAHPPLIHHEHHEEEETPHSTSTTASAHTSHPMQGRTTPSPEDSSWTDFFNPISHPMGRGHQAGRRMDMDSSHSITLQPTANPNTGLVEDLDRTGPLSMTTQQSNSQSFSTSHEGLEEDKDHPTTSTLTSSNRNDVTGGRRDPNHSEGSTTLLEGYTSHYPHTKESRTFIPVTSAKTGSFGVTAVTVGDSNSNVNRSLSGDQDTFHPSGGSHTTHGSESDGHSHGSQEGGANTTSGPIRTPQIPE

B1: AL-MN114-132 IgG1 LALA (antibody, V domains shown)
VH: EVQLLESGGGLVQPGGSLRLSCAASGFTFSSYAMSWVRQAPGKGLEWVSAISGGGSSTYYADSVKGRFTISRDNSKNTLYLQMNSLRAEDTAVYYCARHYYSDSDYRSSAAMDYWGQGTLVTVSS
VL: DIQMTQSPSSLSASVGDRVTITCRASQSISSYLNWYQQKPGKAPKLLIYAASSLQSGVPSRFSGSGSGTDFTLTISSLQPEDFATYYCQQDLYLLTFGQGTKLEIK
notes: item 20 iii) gives heavy 77 / light 96 without naming the format
Take B1: the binding result in the test with Human CD44 iso6-Fc is “no binding (tested: 10 nM highest CD44 concentration)”. The Kd with Human v6-peptide is 12 nM; in the test with Cynomolgus v6-peptide, 7.3 nM; with Rabbit v6-peptide, 13 nM; in the test with Human CD44v6 iso4-Fc [2], 0.062 nM. Besides, the koff with Human v6-peptide is 0.013 s⁻¹; in the test with Cynomolgus v6-peptide, 0.0096 s⁻¹; with Rabbit v6-peptide, 0.023 s⁻¹; with Human CD44v6 iso4-Fc [1] it was 0.00012 s⁻¹. Besides, the kon is 1.1e+06 M⁻¹ s⁻¹ with Human v6-peptide, 1.3e+06 M⁻¹ s⁻¹ with Cynomolgus v6-peptide, 1.7e+06 M⁻¹ s⁻¹ with Rabbit v6-peptide and 1.9e+06 M⁻¹ s⁻¹ in the test with Human CD44v6 iso4-Fc [1].

B2: AL-MN114-132 IgG1 LALA IAHA (antibody, V domains shown)
VH: EVQLLESGGGLVQPGGSLRLSCAASGFTFSSYAMSWVRQAPGKGLEWVSAISGGGSSTYYADSVKGRFTISRDNSKNTLYLQMNSLRAEDTAVYYCARHYYSDSDYRSSAAMDYWGQGTLVTVSS
VL: DIQMTQSPSSLSASVGDRVTITCRASQSISSYLNWYQQKPGKAPKLLIYAASSLQSGVPSRFSGSGSGTDFTLTISSLQPEDFATYYCQQDLYLLTFGQGTKLEIK
notes: Human IgG1 LALA IAHA, kappa
B2: in the test with Human CD44 iso6-Fc, the binding result is “no binding (tested: 10 nM highest CD44 concentration)”. Also, the Kd with Human v6-peptide came to 22 nM; with Cynomolgus v6-peptide it was 17 nM; in the test with Rabbit v6-peptide, 37 nM; with Human CD44v6 iso4-Fc [2], 1.5 nM. The dissociation rate constant (koff) with Human v6-peptide stood at 0.016 s⁻¹; with Cynomolgus v6-peptide, 0.014 s⁻¹; in the test with Rabbit v6-peptide, 0.037 s⁻¹; with Human CD44v6 iso4-Fc [1] it was 0.00021 s⁻¹. The kon with Human v6-peptide stood at 730000 M⁻¹ s⁻¹; with Cynomolgus v6-peptide, 860000 M⁻¹ s⁻¹; with Rabbit v6-peptide, 990000 M⁻¹ s⁻¹; in the test with Human CD44v6 iso4-Fc [1], 140000 M⁻¹ s⁻¹.

B3: AL-MN114-465 IgG1 LALA IAHA (antibody, V domains shown)
VH: EVQLLESGGGLVQPGGSLRLSCAASGFSFGSYAMSWVRQAPGKGLEWVSAISAGGSSTFYADSVKGRFTISRDNSKNTLYLQMNSLRAEDTAVYYCARHYYSDSDYRSSAAMDYWGQGTLVTVSS
VL: DIQMTQSPSSLSASVGDRVTITCRASQSISSYLNWYQQKPGKAPKLLIYTASSLQSGVPSRFSGSGSGTDFTLTISSLQPEDFATYYCQQDLYLLTFGQGTKLEIK
notes: Human IgG1 LALA IAHA, kappa
As for B3, in the test with Human CD44 iso6-Fc, the binding result is on record as “no binding (tested: 10 nM highest CD44 concentration)”. Besides, the Kd with Human v6-peptide stood at 14 nM; with Cynomolgus v6-peptide it was 13 nM; with Rabbit v6-peptide, 19 nM; with Human CD44v6 iso4-Fc [2], 1.6 nM. In addition, the off-rate (koff) in the test with Human v6-peptide was 0.0093 s⁻¹; in the test with Cynomolgus v6-peptide, 0.0085 s⁻¹; in the test with Rabbit v6-peptide, 0.015 s⁻¹; with Human CD44v6 iso4-Fc [1], 0.00027 s⁻¹. For the same molecule, the kon came out at 680000 M⁻¹ s⁻¹ in the test with Human v6-peptide, 680000 M⁻¹ s⁻¹ in the test with Cynomolgus v6-peptide, 830000 M⁻¹ s⁻¹ with Rabbit v6-peptide and 170000 M⁻¹ s⁻¹ in the test with Human CD44v6 iso4-Fc [1].

B4: U-MN114-19 IgG1 LALA IAHA (antibody, V domains shown)
VH: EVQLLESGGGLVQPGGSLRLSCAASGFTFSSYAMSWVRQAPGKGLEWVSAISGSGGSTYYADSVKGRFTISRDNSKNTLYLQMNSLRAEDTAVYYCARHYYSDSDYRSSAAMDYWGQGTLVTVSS
VL: DIQMTQSPSSLSASVGDRVTITCRASQSISSYLNWYQQKPGKAPKLLIYAASSLQSGVPSRFSGSGSGTDFTLTISSLQPEDFATYYCQQDLYLLTFGQGTKLEIK
notes: also called parental clone U-MN114-19
Turning to B4, the binding result with Human CD44 iso6-Fc is listed as “no binding (tested: 10 nM highest CD44 concentration)”. The Kd in the test with Human v6-peptide worked out at 17 nM; in the test with Cynomolgus v6-peptide it was 20 nM; with Rabbit v6-peptide, 31 nM; with Human CD44v6 iso4-Fc [2], 0.05 nM. Moreover, the koff with Human v6-peptide is 0.019 s⁻¹; with Cynomolgus v6-peptide, 0.034 s⁻¹; with Rabbit v6-peptide, 0.067 s⁻¹; in the test with Human CD44v6 iso4-Fc [1], 0.00012 s⁻¹. In addition, the kon in the test with Human v6-peptide turned out to be 1.1e+06 M⁻¹ s⁻¹; with Cynomolgus v6-peptide, 1.7e+06 M⁻¹ s⁻¹; with Rabbit v6-peptide, 2.2e+06 M⁻¹ s⁻¹; in the test with Human CD44v6 iso4-Fc [1], 2.5e+06 M⁻¹ s⁻¹.

B5: AL-MN114-444 IgG1 LALA IAHA (antibody, V domains shown)
VH: EVQLLESGGGLVQPGGSLRLSCAASGFTFRSFAMSWVRQAPGKGLEWVSAISGGGSSTFYADSVKGRFTISRDNSKNTLYLQMNSLRAEDTAVYYCARHYYSDSDYRSSAAMDYWGQGTLVTVSS
VL: DIQMTQSPSSLSASVGDRVTITCRASQSIGSYLNWYQQKPGKAPKLLIYSASSLQSGVPSRFSGSGSGTDFTLTISSLQPEDFATYYCQQDLYLLTFGQGTKLEIK
notes: Human IgG1 LALA IAHA, kappa
Turning to B5, the binding result with Human CD44 iso6-Fc is listed as “no binding (tested: 10 nM highest CD44 concentration)”. Also, the Kd with Human v6-peptide was 12 nM; with Cynomolgus v6-peptide it was 11 nM; with Rabbit v6-peptide, 15 nM; with Human CD44v6 iso4-Fc [2], 1 nM. Moreover, the koff with Human v6-peptide amounted to 0.0083 s⁻¹; in the test with Cynomolgus v6-peptide it was 0.0079 s⁻¹; with Rabbit v6-peptide it was 0.012 s⁻¹; with Human CD44v6 iso4-Fc [1] it was 0.00032 s⁻¹. Moreover, the kon with Human v6-peptide turned out to be 710000 M⁻¹ s⁻¹; with Cynomolgus v6-peptide, 720000 M⁻¹ s⁻¹; with Rabbit v6-peptide it was 820000 M⁻¹ s⁻¹; with Human CD44v6 iso4-Fc [1] it was 320000 M⁻¹ s⁻¹.

B6: AL-MN114-71 IgG1 LALA IAHA (antibody, V domains shown)
VH: EVQLLESGGGLVQPGGSLRLSCAASGFSFRSFAMSWVRQAPGKGLEWVSAISGGGSSTFYADSVKGRFTISRDNSKNTLYLQMNSLRAEDTAVYYCARHYYSDSDYRSSAAMDYWGQGTLVTVSS
VL: DIQMTQSPSSLSASVGDRVTITCRASQSISSYLNWYQQKPGKAPKLLIYAASTLQSGVPSRFSGSGSGTDFTLTISSLQPEDFATYYCQQDLYLLTFGQGTKLEIK
notes: Human IgG1 LALA IAHA, kappa
In the case of B6, the binding result with Human CD44 iso6-Fc is given as “no binding (tested: 10 nM highest CD44 concentration)”. Also, the Kd with Human v6-peptide came to 17 nM; in the test with Cynomolgus v6-peptide, 13 nM; with Rabbit v6-peptide, 22 nM; with Human CD44v6 iso4-Fc [2], 1.1 nM. Besides, the koff with Human v6-peptide was 0.011 s⁻¹; with Cynomolgus v6-peptide it was 0.0095 s⁻¹; with Rabbit v6-peptide it was 0.016 s⁻¹; in the test with Human CD44v6 iso4-Fc [1], 0.00026 s⁻¹. In addition, the kon was 620000 M⁻¹ s⁻¹ with Human v6-peptide, 710000 M⁻¹ s⁻¹ with Cynomolgus v6-peptide, 710000 M⁻¹ s⁻¹ with Rabbit v6-peptide and 230000 M⁻¹ s⁻¹ in the test with Human CD44v6 iso4-Fc [1].

B7: U-MN114-19 IgG1 LALA (antibody, V domains shown)
VH: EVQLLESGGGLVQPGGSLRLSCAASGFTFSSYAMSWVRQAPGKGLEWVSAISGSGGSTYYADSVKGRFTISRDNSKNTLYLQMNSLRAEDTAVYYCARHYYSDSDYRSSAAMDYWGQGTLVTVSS
VL: DIQMTQSPSSLSASVGDRVTITCRASQSISSYLNWYQQKPGKAPKLLIYAASSLQSGVPSRFSGSGSGTDFTLTISSLQPEDFATYYCQQDLYLLTFGQGTKLEIK
notes: item 20 xxi) gives heavy 149 / light 150 without naming the format; also called parental clone U-MN114-19
With B7, the binding result in the test with Human CD44 iso6-Fc is listed as “no binding (tested: 10 nM highest CD44 concentration)”. Further, the Kd with Human v6-peptide worked out at 58 nM; with Cynomolgus v6-peptide, 44 nM; with Rabbit v6-peptide, 79 nM; with Human CD44v6 iso4-Fc [2], 1.2 nM. The koff with Human v6-peptide turned out to be 0.049 s⁻¹; with Cynomolgus v6-peptide, 0.046 s⁻¹; in the test with Rabbit v6-peptide, 0.15 s⁻¹; with Human CD44v6 iso4-Fc [1], 0.00015 s⁻¹. The kon in the test with Human v6-peptide was 830000 M⁻¹ s⁻¹; in the test with Cynomolgus v6-peptide, 1e+06 M⁻¹ s⁻¹; with Rabbit v6-peptide it was 2e+06 M⁻¹ s⁻¹; with Human CD44v6 iso4-Fc [1], 130000 M⁻¹ s⁻¹.

As usually defined, the koff is a measure of how fast the partners let go of each other. The low end stands for slow dissociation, the high end for fast dissociation. As usually defined, the kon is a measure of how fast the partners come together. Read a low kon as slow association.
